Here are results for two compounds from patent US20220047715A1, “FORCE-DEPENDENT DRUG RELEASE SYSTEM TO ENHANCE SELECTIVE KILLING AND MINIMIZE ADVERSE EFFECTS IN CANCER TREATMENT” (THE JOHNS HOPKINS UNIVERSITY, priority 2018, published 2022).

The subject of one data set is CTLA4-CD80 bond. Kind of data set: Micropillar-based measurement for CTLA4-CD80 tension. Format: cell-based, human. To be noted: cancer cells on micropillars, FIG. 3b. On the procedure:
FIG. 3: Micropillar-based measurement for CTLA4-CD80 tension. (a) A cancer cell is cultured on micropillars. The forces transmitted to the CTLA4-CD80 bond bend the micropillars. (b) Cancer cells can generate ˜2-fold higher stress than normal cells. […] (c) Cancer cells generate 4-fold higher stress transmitted to the CTLA4-CD80 bond compared to integrin-fibronectin bond. Scale bar: 5 μm.
To determine which of the two possibilities described above is likely to be true, we measured the forces CTLA4 exerts on the CD80 upon binding in both normal cells and breast cancer cells. Since trans-endocytosis requires high forces to physically remove CD80 from the cell membrane of the APC, followed by internalization, we tested whether cancer cells yield higher forces if trans-endocytosis is the unique mechanism used by cancer cells to achieve immunosuppression. We tested the human breast cancer cells MDA-MB-231 and their normal counterpart MCF10A cells, as well as the mouse breast cancer cells EO771 and their normal counterpart EPH4-EV, all of which express CTLA4 (FIG. 1). […] We also measured the forces transmitted via CTLA4 in Treg cells purified from mouse spleens. […] Moreover, when HEK293 cells, in which endogenous CTLA4 is not detected, were transfected with CTLA4 cDNA, only minimal level of forces and no trans-endocytosis of CD80 could be recorded (FIG. 2 panel c).

The conditions of data set [1]: cited from earlier work.

For the compound `Cc1ccc2c(c1)C(=O)C1(O)CCN(c3ccccc3)C1=N2` (stereo not drawn) [Blebbistatin], the “force generation transmitted through the CTLA4-CD80 bond” value with CTLA4-CD80 bond is on record as “does not inhibit”.

In the case of Ipilimumab, the “patients experiencing skin lesions, colitis, hepatitis, hypophysitis, thyroiditis and other immune-related events” value in data set [1] (Ipilimumab alone, 81 reports, 1265 patients, 22 clinical trials) is given as 72%. The “patients experiencing adverse events” value in data set [1] (one study) was 85%.
